The values below come from paper PMC5442856, “A bacterial negative transcription regulator binding on an inverted repeat in the promoter for epothilone biosynthesis”.

The series concerns the target T1, Esi (His-Esi) (Sorangium cellulosum So0157-2, UniProt UPI000354DD11 1-373).
T1 sequence: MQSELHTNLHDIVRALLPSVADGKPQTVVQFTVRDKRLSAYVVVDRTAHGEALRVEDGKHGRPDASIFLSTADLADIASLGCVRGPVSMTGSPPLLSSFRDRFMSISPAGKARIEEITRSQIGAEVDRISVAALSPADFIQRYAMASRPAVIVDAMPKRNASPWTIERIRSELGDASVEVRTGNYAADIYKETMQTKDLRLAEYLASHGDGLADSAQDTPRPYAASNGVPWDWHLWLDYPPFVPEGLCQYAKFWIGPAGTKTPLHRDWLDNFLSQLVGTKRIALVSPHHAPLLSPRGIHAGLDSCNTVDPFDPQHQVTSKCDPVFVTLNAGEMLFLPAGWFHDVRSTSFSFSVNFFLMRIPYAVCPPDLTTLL
The series can be described thus: EMSA; poly(dI-dC) competitor; increasing His-Esi; 12 pmol DNA; EMSA: 25 uL with 2.5 uL of 10x buffer (final about 12 mM HEPES, 4 mM Tris, 60 mM KCl, 5 mM MgCl2, 0.1 mM EDTA, pH 8.0), 1 uL glycerol buffer (20% glycerol, 20 mM HEPES), poly(dI-dC), remainder protein and 50 mM NaH2PO4; 30 C, 30 min; 5% native PAGE in TGE pH 8.0 at 4 C. As to conditions: protein: recombinant; tags: N-terminal 6xHis (pET-28a); blunt.

B1: 17-bp operator of epothilone promoter (dsDNA)
DNA 1: GGGACGAGCTAATTCCC
DNA 2: GGGAATTAGCTCGTCCC
Regarding B1, the binding result is listed as “binds”.
